Measured values as given in article PMC6004067.

Molecular target: GST-TBP, GST-tagged full-length human TBP (human) (UniProt P20226)
Assay: pull-down; GST pull-down: GST-TBP, GST-TFIIB or TBP fragments on glutathione beads; analytes in buffer B2 (150 mM NaCl), 1 h at 4°C, four washes, Western blot

GST-TBP, GST-tagged full-length human TBP (human), sequence (P20226 whole entry, the tested form may be a part): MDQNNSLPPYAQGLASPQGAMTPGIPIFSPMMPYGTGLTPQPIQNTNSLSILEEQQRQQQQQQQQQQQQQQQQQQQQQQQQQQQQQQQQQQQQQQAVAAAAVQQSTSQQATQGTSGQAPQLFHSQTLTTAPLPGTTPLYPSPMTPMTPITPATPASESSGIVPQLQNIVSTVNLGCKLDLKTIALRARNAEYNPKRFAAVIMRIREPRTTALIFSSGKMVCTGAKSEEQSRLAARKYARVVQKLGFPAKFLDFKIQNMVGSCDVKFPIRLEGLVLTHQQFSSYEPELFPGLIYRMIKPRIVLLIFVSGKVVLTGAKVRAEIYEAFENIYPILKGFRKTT

increase in SNAPc recruitment to GST-TBP on addition of TFIIA: 60%
Substance: SNAP complex (SNAPc) (from UniProt Q5SXM2 1-1469; Q92966 1-411; Q13487 1-334; Q16533 1-368; O75971 1-98)
